Measured values taken from patent US10287317B2, “Proprotein convertase subtilisin kexin type 9 (PCSK9) allosteric binding ligands to modulate serum low density lipoprotein (LDL) levels” (SRX Cardio, LLC, priority 2013, dated 2019).
*1 amine or outer side, *2 acyl side, *3 side chain or, on linkers, in order; H or OH if unused. Where a SMILES comes first, the peptide text is derived from it. Where no end group is shown, it is not given here. [ ]: non-standard residue; d: D form. The star is where a group is joined. Asp(NHCH2Ph) = Asp side-chain benzylamide, O=C(C[C@H](N[*:1])C(=O)[*:2])NCc1ccccc1; Cys(CH2-Ph) = S-benzyl-Cys, O=C([C@H](CSCc1ccccc1)N[*:1])[*:2]; Phe(3-CH2NH2) = O=C([C@H](Cc1cccc(CN[*:3])c1)N[*:1])[*:2]; Bip = N[C@@H](Cc1ccc(-c2ccccc2)cc1)C(=O)O; d(pS) = N[C@H](COP(=O)(O)O)C(=O)O; hCha = N[C@@H](CCC1CCCCC1)C(=O)O; hPhe = N[C@@H](CCc1ccccc1)C(=O)O; pS = N[C@@H](COP(=O)(O)O)C(=O)O; Cit = NC(=O)NCCC[C@H](N)C(=O)O; Bn = c1ccc(C*)cc1; βAla = NCCC(=O)O

These molecules were tested against PCSK9-WT protein (human proprotein convertase subtilisin/kexin type 9) (human, UniProt Q8NBP7 31-692, limits assumed) (assay: cell-based or functional assay). Conditions: not given.
Sequence of PCSK9-WT protein (human proprotein convertase subtilisin/kexin type 9) (Q8NBP7 31-692 limits assumed): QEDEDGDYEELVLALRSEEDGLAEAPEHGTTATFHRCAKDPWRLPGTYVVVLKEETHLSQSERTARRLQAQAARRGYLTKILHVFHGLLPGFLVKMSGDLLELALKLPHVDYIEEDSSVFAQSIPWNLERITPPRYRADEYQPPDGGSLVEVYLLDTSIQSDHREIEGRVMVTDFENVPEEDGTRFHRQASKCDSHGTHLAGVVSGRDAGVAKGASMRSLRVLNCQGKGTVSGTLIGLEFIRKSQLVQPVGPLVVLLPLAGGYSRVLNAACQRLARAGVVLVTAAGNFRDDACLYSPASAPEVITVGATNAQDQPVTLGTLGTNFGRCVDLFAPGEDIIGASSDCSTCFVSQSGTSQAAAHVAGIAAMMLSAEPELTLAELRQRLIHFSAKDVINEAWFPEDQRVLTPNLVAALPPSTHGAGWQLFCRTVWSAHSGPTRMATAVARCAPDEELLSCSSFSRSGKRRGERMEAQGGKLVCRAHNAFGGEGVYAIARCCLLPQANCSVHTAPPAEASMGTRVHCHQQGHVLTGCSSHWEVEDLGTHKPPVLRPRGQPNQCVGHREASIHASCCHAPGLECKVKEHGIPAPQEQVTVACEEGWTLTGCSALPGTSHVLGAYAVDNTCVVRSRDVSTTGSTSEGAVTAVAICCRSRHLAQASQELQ

| Molecule | Cell Activity of Exemplified Peptides (FACS of cell surface LDLR, HuH7/shPCSK9 cells) | cell surface LDLR levels, FACS in HuH7 cells, 10 nM recombinant PCSK9 [% reversal] |
| --- | --- | --- |
| VYVRFW (not fully specified; printed as Val-Tyr-Val-Arg-Phe-Trp) [SRX55: Val-Tyr-Val-Arg-Phe-Trp] | > 30 % inhibition above control at 100 uM |  |
| Ac-Trp-Ala-[pS] [SRX69: Ac-Trp-Ala-Ser(p)] | > 30 % inhibition below control at 100 uM |  |
| TL[hCha]TWSS[pS] [SRX62: Thr-Leu-Gly(CH2CH2cyclohexyl)-Thr-Trp-Ser-Ser-Ser(p)] | > 30 % inhibition above control at 100 uM |  |
| TL[Asp(NHCH2Ph)]TWSS[pS] [SRX61: Thr-Leu-Asp(NHCH2Ph)-Thr-Trp-Ser-Ser-Ser(p)] | > 30 % inhibition above control at 100 uM |  |
| [Bip]-Ala-[pS]-morpholine [SRX73: Phe(4-Ph)-Ala-Ser(p)-morpholine] | > 30 % inhibition below control at 100 uM |  |
| VYV[Cit]FW-NH2 (N-terminus assumed; SMILES CC(C)[C@H](N)C(=O)N[C@@H](Cc1ccc(O)cc1)C(=O)N[C@H](C(=O)N[C@@H](CCCNC(N)=O)C(=O)N[C@@H](Cc1ccccc1)C(=O)N[C@@H](Cc1c[nH]c2ccccc12)C(N)=O)C(C)C) [SRX310: Val-Tyr-Val-Cit-Phe-Trp-NH2] |  | 60 |
| VYVRF-{NH(cyclopentyl)} [SRX321: Val-Tyr-Val-Arg-Phe-NH(cyclopentyl)] |  | > 60 |
| VYV[Cit]FW-NHEt [SRX314: Val-Tyr-Val-Cit-Phe-Trp-NHEt] |  | > 60 |
| Ac-Tyr-Trp-Gly [SRX72: Ac-Tyr-Trp-Gly] | > 30 % inhibition below control at 100 uM |  |
| [βAla][Phe(3-CH2NH2)]V[d(pS)]FW [SRX56: β-Ala-Phe(3-CH2NH2)-Val-D-Ser(p)-Phe-Trp] | > 30 % inhibition above control at 100 uM |  |
| TL[Cys(CH2-Ph)]TWSS[pS] [SRX60: Thr-Leu-Cys(CH2-Ph)-Thr-Trp-Ser-Ser-Ser(p)] | > 30 % inhibition above control at 100 uM |  |
| LDLFFS [SRX66: Leu-Asp-Leu-Phe-Phe-Ser] | > 30 % inhibition above control at 100 uM |  |
| VLELYW [SRX65: Val-Leu-Glu-Leu-Tyr-Trp] | > 30 % inhibition above control at 100 uM |  |

Each molecule was assayed against T1, PCSK9-WT protein (Homo sapiens, UniProt Q8NBP7) (assay: Cellular diI-LDL uptake in HuH7 cells with PCSK9-WT). Conditions: HuH7, 1.0 μg/ml PCSK9-WT, 100 uM peptide (FIG. 2).
T1 construct: V5
Assay type: cell-based
Description: HuH7 cells were incubated in a 96-well plate for a total of 20 h in the absence (Cnt) or presence of 1.0 μg/ml PCSK9-WT protein alone (WT) or mixed with 100 uM of various SRX peptides. After 16 h, dil-LDL (5 ug/ml) was added to the incubation mixtures. After 4 h, fluorescence was measured (Ex: 520 nm/Em: 575 nm; cutoff: 550 nm). Dil-LDL uptake is calculated as RFU corrected for the number of cells.
(§1) LDL internalization was measured by uptake of a fluorescently tagged LDL molecule (diI-LDL) in the absence of exogenous PCSK9 (Cnt), in the presence of exogenous PCSK9 (normal PCSK9=WT, D374Y mutant PCSK9=DY), or in the presence of PCSK9 and a tested peptide (indicated as SRX##, or SRX if a single peptide results is shown in a graph).
(§2) Cells, such as HepG2, HuH7, FL83B or a cell line transfected with a short-hairpin PCSK9 knockdown sequence such as HepG2/shPCSK9, HuH7/shPCSK9, FL83B/shPCSK9, were seeded at 2×10^4 cells/well in a 96-well plate and cultured at 37 degC in RPMI+10% FBS. After approximately 24 hours, the cell media was aspirated off and replaced with RPMI+3-5 mg/mL LPDS (Lipoprotein Deficient Serum, Millipore) media for further experimentation. Benjannet et al., “Effects of the prosegment and pH on the activity of PCSK9: evidence for additional processing events” J Biol Chem. 285(52): 40965-40978 (2010).
(§3) Peptide activity was assessed by culturing cells with: i) no SRX peptide/PCSK9 protein complex (control, Cnt); ii) PCSK9 protein; and iii) SRX peptide/PCSK9 complex. Various permutations of these experimental conditions were also used, including: i) the addition of wild type PCSK9 (WT); ii) a mutant PCSK9 (e.g., D374Y mutant PCSK9, DY); iii) various SRX peptides and/or PCSK9 at the same concentration and/or combinations; iv) various SRX peptides and/or PCSK9 at different concentrations and/or combinations; v) the use of different cells, as mentioned above, with or without a transfected short-hairpin sequence; vi) a pre-incubation of the PCSK9 and SRX peptide (e.g., 1, hour, 2 hours, 3 hours, 4 hours etc.); vii) various temperatures including, but not limited to, body temperature (e.g., 37° C.), supraphysiologic temperature (e.g., 39° C.); and viii) with/without agitation (e.g., shaker or gentle periodic vortexing).
(§4) Cells were cultured using one of the combinations of conditions described in the preceding paragraph for 16 hours. After 16 hours, a quantity of diI-LDL (Low density lipoprotein coupled with 1,1′-dioctadecyl-3,3,3′,3′-tetramethylindocarbocyanine perchlorate) needed to bring the media concentration to 5 ug/mL of diI-LDL was added to the culture well and cells continued to be cultured under these new conditions for 4 additional hours. At the end of the 4-hour incubation period (20 total hours of cell culture), the cellular uptake was halted with the addition of 4% formaldehyde in 10 uM Hoechst 33342 in a solvent such as deionized autoclaved water or PBS, and specimens were incubated at 20° C. for 20 minutes. Cell specimens were rinsed twice with PBS and then fluorescence measured with excitation at 360 nm and emission detected at 460 nm to measure DNA content. Cell specimens were then be incubated with a 0.1% SDS in a 0.1 N NaOH solution while being shaken for 10 minutes. Fluorescence of the diI-LDL in the specimens were quantified using excitation at 530 nm and resulting emission at 580 nm.
Fluorescence measurements of diI-LDLR were normalized to estimated cell numbers, determined from the Hoechst fluorescence. Data was analyzed for the different experimental conditions and reported as percentage relative fluorescence units (RFU) of the Cnt specimen. Percent inhibition was calculated as the difference in RFU of a peptide exposed specimen to the RFU of PCSK9-no peptide, divided by the RFU difference in PCSK9-no peptide to RFU of Cnt specimen, also expressed as [(SRX:RFU)−(PCSK9-no peptide:RFU)]/[(PCSK9-no peptide:RFU)−(Cnt:RFU)]×100.

T1 sequence (Q8NBP7 153-692): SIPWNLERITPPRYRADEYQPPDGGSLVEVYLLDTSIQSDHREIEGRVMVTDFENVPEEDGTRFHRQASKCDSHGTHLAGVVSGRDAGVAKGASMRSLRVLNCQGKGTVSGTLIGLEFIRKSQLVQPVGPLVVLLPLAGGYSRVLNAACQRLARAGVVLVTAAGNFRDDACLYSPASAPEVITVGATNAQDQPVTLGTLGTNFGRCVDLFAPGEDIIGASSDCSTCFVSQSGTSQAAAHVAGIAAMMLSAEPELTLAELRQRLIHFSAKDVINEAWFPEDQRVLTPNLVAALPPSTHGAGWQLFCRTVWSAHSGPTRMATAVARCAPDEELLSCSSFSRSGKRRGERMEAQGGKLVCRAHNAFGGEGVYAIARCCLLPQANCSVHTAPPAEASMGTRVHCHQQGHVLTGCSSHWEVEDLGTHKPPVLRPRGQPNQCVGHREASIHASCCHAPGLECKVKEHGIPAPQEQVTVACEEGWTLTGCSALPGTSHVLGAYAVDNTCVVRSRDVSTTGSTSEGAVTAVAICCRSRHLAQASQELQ

| Molecule | LDL internalization (dil-LDL % uptake vs Cnt) |
| --- | --- |
| Ile-Leu-Asp-Leu-Ser-Tyr (ILDLSY; not fully specified (C-terminus); printed as Ile-Leu-Asp-Leu-Ser-Tyr) [Compound 10] | positively modulated (increased) |

The molecules below were run against T1, PCSK9-WT protein (assay: FACS analysis of cell surface LDLR in HuH7 cells with PCSK9-WT). Conditions: HuH7 cells, FACS, exogenous WT PCSK9 plus peptide (FIG. 1, 100 μM).
Assay type: cell-based
Description: HuH7 cells were incubated for 18 h in the absence (Cnt) or presence of 0.75 μg/ml PCSK9-WT protein alone (WT) or mixed with 100 μM of various SRX peptides. The level of LDLR at the cell surface was measured by FACS using anti human LDLR Ab and a suitable secondary Ab labeled with Alexa 647. Cell surface LDLR is reported relative to Cnt. % inhibition of activity was calculated as [SRX−WT]/[Cnt−WT]×100%.
See, FIG. 1. In that experiment, the LDLR levels of a hepatocyte culture model (HuH7 cells) were measured by fluorescence activated cell sorting (FACS) in accordance with Example III. Cell surface LDLR is reported as a percentage of Basal levels of LDLR, indicated by the Cnt_Amm.Bic, Cnt_Ac.Acid, and Cnt bars in the top graph. See, FIG. 1 (top panel). LDLR levels in the presence of exogenous PCSK9 is indicated as WT_Amm.Bic, WT-Ac.Acid, and WT, and Exogenous PCSK9 in combination with a tested peptide is indicated as SRX##. The measured LDLR levels are reported as % versus basal controls (Cnt) of the respective group. […] This was further shown a percent inhibition (% inhibition was calculated as [SRX−WT]/[Cnt−WT]×100%) where positive modulation (increase) of LDLR level is reported as positive % inhibition, and negative modulation (decrease) of LDLR level is reported as negative % inhibition. See, FIG. 1 (bottom panel).
Benjannet et al., “Effects of the prosegment and pH on the activity of PCSK9: evidence for additional processing events” J Biol Chem. 285(52): 40965-40978 (2010). The cells were then washed 3× with solution A (calcium/magnesium-free Dulbecco's PBS (Invitrogen) containing 0.5% bovine serum albumin (Sigma) and 1 g/liter glucose)). The cells were then incubated for 10 min at room temperature with 1× Versene solution (Invitrogen) followed by the addition of 5 ml of solution A. The cells were then incubated for 40 min in solution A containing a human LDLR mAb-C7 (1:100; Santa Cruz Biotechnology). Following washes, the cells were then incubated for 20 min in solution A containing a secondary antibody (Alexa Fluor 647 donkey anti-mouse antibody; 1:250; Molecular Probes).
Following suspension in PBS containing 0.2% of propidium iodide, the cells were analyzed by FACS for both propidium iodide (dead cells) and LDLR in live cells with Alexa Fluor 647 using the FACS BD LSR (BD Biosciences).

| Molecule | modulation of LDLR cell surface level |
| --- | --- |
| CC(=O)N[C@@H](Cc1ccc(O)cc1)C(=O)N[C@@H](Cc1c[nH]c2ccccc12)C(=O)NCC(=O)O [Compound 14, Ac-Tyr-Trp-Gly] (Ac-Tyr-Trp-Gly-OH) | negatively modulate (decrease) |
| Ac-Trp-Ala-Ser(p) (Ac-Trp-Ala-[pS]) [Compound 12] | negatively modulate (decrease) |
| Thr-Leu-Gly(CH2CH2cyclohexyl)-Thr-Trp-Ser-Ser-Ser(p) (TL[hCha]TWSS[pS]) [Compound 5] | positively modulate (increase) |

Same assay, conditions: Huh-7; FACS, HuH7 cells, peptide at 100 uM; read-out: Cell Activity of Exemplified Peptides (inhibition)

| Molecule | inhibition at 100 µM [%] |
| --- | --- |
| CC(C)C[C@H](NC(=O)[C@@H](N)[C@@H](C)O)C(=O)N[C@@H](CSCc1ccccc1)C(=O)N[C@H](C(=O)N[C@@H](Cc1c[nH]c2ccccc12)C(=O)N[C@@H](CO)C(=O)N[C@@H](CO)C(=O)N[C@@H](COP(=O)(O)O)C(=O)O)[C@@H](C)O [Compound 3, Thr-Leu-Cys(CH2-Ph)-Thr-Trp-Ser-Ser-Ser(p)] (H-TLC(Bn)TWSS[pS]-OH) | > 30 |
| CC(=O)N[C@@H](Cc1ccc(O)cc1)C(=O)N[C@@H](Cc1c[nH]c2ccccc12)C(=O)NCC(=O)O [Compound 14, Ac-Tyr-Trp-Gly] (Ac-Tyr-Trp-Gly-OH) | < -30 |

What follows are molecules tested against PCSK9-D374Y protein (Homo sapiens, UniProt Q8NBP7, D374Y) (assay: Cellular diI-LDL uptake in HuH7 cells with PCSK9-D374Y). Conditions: HuH7, 0.5 μg/ml PCSK9-D374Y, 100 uM peptide (FIG. 3).
Assay type: cell-based
Description: HuH7 cells were incubated in a 96-well plate for a total of 20 h in the absence (Cnt) or presence of 0.5 μg/ml PCSK9-D374Y protein alone (DY) or mixed with 100 uM of various SRX peptides. After 16 h, dil-LDL (5 ug/ml) was added to the incubation mixtures. After 4 h, fluorescence was measured (Ex: 520 nm/Em: 575 nm; cutoff: 550 nm). Dil-LDL uptake is calculated as RFU corrected for the number of cells.
HuH7 cells were incubated in a 96-well plate for a total of 20 h in the absence (Cnt) or presence of 0.5 μg/ml PCSK9 GOF-D374Y protein alone (DY) or mixed with increasing concentrations of various SRX peptides. After 16 h, dil-LDL (5 ug/ml) was added to the incubation mixtures. After 4 h, fluorescence was measured (Ex: 520 nm/Em: 575 nm; cutoff: 550 nm). Dil-LDL uptake is calculated as RFU corrected for the number of cells.
as §1, §2, §3, §4
Fluorescence measurements of diI-LDLR were normalized to estimated cell numbers, determined from the Hoechst fluorescence. […]

Sequence of PCSK9-D374Y protein (Q8NBP7 153-692 D374Y): as the sequence (Q8NBP7 153-692) above, with D222Y counted along it

| Molecule | LDL internalization (dil-LDL % uptake vs Cnt) |
| --- | --- |
| CC(=O)N[C@@H](Cc1ccc(O)cc1)C(=O)N[C@@H](Cc1c[nH]c2ccccc12)C(=O)NCC(=O)O [Compound 14, Ac-Tyr-Trp-Gly] (Ac-Tyr-Trp-Gly-OH) | negatively modulated (decreased) |
| Thr-Leu-Hph-Thr-Trp-Ser-Ser-Ser(p) (TL[hPhe]TWSS[pS]) [Compound 6] | positively modulated (increased) |
